Reference: patent US12286661B2, “Methods for making high intensity sweeteners” (Firmenich Incorporated, priority 2018, dated 2025)

B1: SEQ ID NO. 1054/1055: glycosyltransferase (DNA/protein SEQ ID NO) producing mogroside I from mogrol (protein, listed as Barbarea vulgaris)
chain: MVSEITHKSYPLHFVLFPFMAQGHMIPMVDIARLLAQRGVKITIVTTPHNAARFENVLSRAIESGLPISIVQVKLPSQEAGLPEGNETFDSLVSMELLVPFFKAVNMLEEPVQKLFEEMSPQPSCIISDFCLPYTSKIAKKFNIPKILFHGMCCFCLLCMHVLRKNREILENLKSDKEHFVVPYFPDRVEFTRPQVPMATYVPGEWHEIKEDIVEADKTSYGVIVNTYQELEPAYANDYKEARSGKAWTIGPVSLCNKVGADKAERGNKADIDQDECLKWLDSKEEGSVLYVCLGSICSLPLSQLKELGLGLEESQRPFIWVVRGWEKNKELLEWFSESGFEERVKDRGLLIKGWSPQMLILAHHSVGGFLTHCGWNSTLEGITSGIPLLTWPLFGDQFCNQKLVVQVLKVGVSAGVEEVTNWGEEEKIGVLVDKEGVKKAVEELMGESDDAKERRKRVKELGQLAQKAVEEGGSSHSNITSLLEDIMQLAQSNN
B2: SEQ ID NO. 1056/1057: glycosyltransferase (DNA/protein SEQ ID NO) producing mogroside I from mogrol (protein, listed as Barbarea vulgaris)
chain: MVSEITHKSYPLHFVLFPFMAQGHMIPMVDIARLLAQRGVKITIVTTPHNAARFENVLSRAIESGLPISIVQVKLPSQEAGLPEGNETFDSLVSTKLLVPFFKAVNMLEEPVQKLFEEMSPQPSCIISDFCLPYTSKIAKKFNIPKILFHGMCCFCLLCMHVLRKNREILENLKSDKEHFVVPYFPDRVEFTRPQVPLATYVPGEWHEIKEDMVEADKTSYGVIVNTYQELEPAYANGYKEARSGKAWTIGPVSLCNKVGADKAERGNKADIDQDECLKWLDSKEEGSVLYVCLGSICSLPLSQLKELGLGLEESQRPFIWVVRGWEKNKELLEWFSESGFEERVKDRGLLIKGWSPQMLILAHHSVGGFLTHCGWNSTLEGITSGVPLLTWPLFGDQFCNQKLVVQVLKVGVSAGVEEVTNWGEEEKIGVLVDKEGVKKAVEELMGESDDAKEIRKRVKELGQLAHKAVEEGGSSHSNITSLLEDIMQLAQPNN
B3: SEQ ID NO. 1052/1053: glycosyltransferase (DNA/protein SEQ ID NO) producing mogroside I from mogrol (protein, listed as Siraitia grosvenorii)
chain: MEKGDTHILVFPFPSQGHINPLLQLSKRLIAKGIKVSLVTTLHVSNHLQLQGAYSNSVKIEVISDGSEDRLETDTMRQTLDRFRQKMTKNLEDFLQKAMVSSNPPKFILYDSTMPWVLEVAKEFGLDRAPFYTQSCALNSINYHVLHGQLKLPPETPTISLPSMPLLRPSDLPAYDFDPASTDTIIDLLTSQYSNIQDANLLFCNTFDKLEGEIIQWMETLGRPVKTVGPTVPSAYLDKRVENDKHYGLSLFKPNEDVCLKWLDSKPSGSVLYVSYGSLVEMGEEQLKELALGIKETGKFFLWVVRDTEAEKLPPNFVESVAEKGLVVSWCSQLEVLAHPSVGCFFTHCGWNSTLEALCLGVPVVAFPQWADQVTNAKFLEDVWKVGKRVKRNEQRLASKEEVRSCIWEVMEGERASEFKSNSMEWKKWAKEAVDEGGSSDKNIEEFVAMLKQT
B4: SEQ ID NO. 1026/1027: CYP450 enzyme (DNA/protein SEQ ID NO) producing 11-OH cucurbitadienol (protein, listed as Cucumis sativus)
chain: MWTILLGLATLAIAYYIHWVNKWKDSKFNGVLPPGTMGLPLIGETIQLSRPSDSLDVHPFIQRKVKRYGPIFKTCLAGRPVVVSTDAEFNHYIMLQEGRAVEMWYLDTLSKFFGLDTEWLKALGLIHKYIRSITLNHFGAESLRERFLPRIEESARETLHYWSTQTSVEVKESAAAMVFRTSIVKMFSEDSSKLLTEGLTKKFTGLLGGFLTLPLNLPGTTYHKCIKDMKQIQKKLKDILEERLAKGVKIDEDFLGQAIKDKESQQFISEEFIIQLLFSISFASFESISTTLTLILNFLADHPDVVKELEAEHEAIRKARADPDGPITWEEYKSMNFTLNVICETLRLGSVTPALLRKTTKEIQIKGYTIPEGWTVMLVTASRHRDPEVYKDPDTFNPWRWKELDSITIQKNFMPFGGGLRHCAGAEYSKVYLCTFLHILFTKYRWRKLKGGKIARAHILRFEDGLYVNFTPKE
B5: SEQ ID NO. 1028/1029: CYP450 enzyme (DNA/protein SEQ ID NO) producing 11-OH cucurbitadienol (protein)
chain: MWTILLGLATLAIAYYIHWVNKWKDSKFNGVLPPGTMGLPLIGETIQLSRPSDSLDVHPFIQSKVKRYGPIFKTCLAGRPVVVSTDAEFNHYIMLQEGRAVEMWYLDTLSKFFGLDTEWLKALGLIHKYIRSITLNHFGAESLRERFLPRIEESARETLHYWSTQPSVEVKESAAAMVFRTSIVKMFSEDSSKLLTAGLTKKFTGLLGGFLTLPLNVPGTTYHKCIKDMKEIQKKLKDILEERLAKGVSIDEDFLGQAIKDKESQQFISEEFIIQLLFSISFASFESISTTLTLILNFLADHPDVAKELEAEHEAIRKARADPDGPITWEEYKSMNFTLNVICETLRLGSVTPALLRKTTKEIQIKGYTIPEGWTVMLVTASRHRDPEVYKDPDTFNPWRWKELDSITIQRNFMPFGGGLRHCAGAEYSKVYLCTFLHILFTKYRWRKLKGGKIARAHILRFEDGLYVNFTPKE
modifications: Cucumis melo
B6: SEQ ID NO. 889/890: CYP450 enzyme (DNA/protein SEQ ID NO) producing 11-OH cucurbitadienol (protein)
chain: MEVHWVCMCAATLLVCYIFGSKFVRNLNGWYYDVKLRRKEHPLPPGDMGWPLMGNLLSFIKDFSSGHPDSFINNLVLKYGRSGIYKTHLFGNPSIIVCEPQMCRRVLTDDVNFKLGYPKSIKELARCRPMIDVSNAEHRLFRRLITSPIVGHKALAMYLERLEEIVINSLEELSSMKHPVELLKEMKKVSFKAIVHVFMGSSNQDIIKKIGSSFTDLYNGMFSIPINVPGFTFHKALEARKKLAKIVQPVVDERRLMIENGQQEGDQRKDLIDILLEVKDENGRKLEDEDISDLLIGLLFAGHESTATSLMWSITYLTQHPHILKKAKEEQEEIMRTRLSSQKQLSFKEIKQMVYLSQVIDETLRCANIAFATFREATADVNINGYIIPKGWRVLIWARAIHMDSEYYPNPEEFNPSRWDDYNAKAGTFLPFGAGSRLCPGADLAKLEISIFLHYFLLNYRLERVNPECHVTSLPVSKPTDNCLAKVMKVSCA
modifications: Pathway step 3 sequence T CYP88D6 (codon optimized)
B7: SEQ ID NO. 1030/1031: CYP450 enzyme (DNA/protein SEQ ID NO) producing 11-OH cucurbitadienol (protein)
chain: MWTIGLCIVAVLVIYLSYRLNKWSNPKCNGILPPGSMGLPLIGETLQLIVPSYSLDLHPFIKKKAQKYGPIFRTSVAGSPIVVSIDPEFNHYIVKQEGRLVELWYLDSFSKLFSTEGENKTNAIGVVHKYIRSIALNHFGVDPLKEKLLPQIEEFVDKALQTWSSHPLVEMKHAASVMIFDFSAKLFISYDAENSPMKMSEKFTNILGGFMSFPLNIPGTTYHKCLKDRNEALSMLRKIFKERINSPKRHFEDLLDQAINDTDKEKFLPEDFIINVVFGLLFASFESISAALSLILNLLAEHPAVLQELTDEHKAILKNRESPNSILTWDEYKSMTFTHQVINEALRLGGVAPGLLRKALKDIEFKGYTIPAGWTIMLVNSAIQLNPNTYKDPLAFNPWRWKDLDSLFVSKNFMPFGGGIRQCVGAEYSKTFLATFLHVLVTKYRWTKVKGGTIVRNPILEFTDGLHIKFSAISN
modifications: Quercus suber

What follows are molecules tested on mogrol (assay: Mogroside IA and/or IE production from mogrol by glycosyltransferases expressed in S. cerevisiae, LCMS). Conditions: 10 μM mogrol, 2-4 days at 30° C.; identified by LCMS.
Type: cell-based
Source text: (§1) DNA was obtained through gene synthesis either through Genescript, IDT, or Genewiz. For some of the cucurbitadienol synthases, cDNA or genomic DNA was obtained through 10-60 day old seedlings followed by PCR amplification using specific and degenerate primers. DNA was cloned through standard molecular biology techniques or through yeast gap repair cloning (Joska et al., 2014) into one of the following overexpression vectors: pESC-Ura, pESC-His, or pESC-LEU. Gene expression was regulated by one of the following promoters; Gall, Gal10, Tef1, or GDS. Yeast transformation was performed using Zymo Yeast Transformation Kit II. Yeast strains were grown in standard media (YPD or SC) containing the appropriate selection with 2% glucose or 2% galactose for induction of heterologous genes. Yeast strains were grown in shake flask or 96 well plates at 30° ° C., 140-250 rpm. When indicated, lanosterol synthase inhibitor, Ro 48-8071 (Cayman Chemicals) was added (50 ug/ml). Yeast samples producing mogrol precursors, mogrol and mogrosides were processed through one of the following: • Cucurbitadienol and 11-OH Cucurbitadienol: Samples cell pellets were lysed (Yeast Buster) followed by ethyl acetate extraction, drying, and resuspension in methanol. • ·Mogrol and Mogrosides: Samples cell pellets were lysed in 50% ETOH, incubated at 80° C. for 30 min, filtered, dried and resuspended in MeOH for LCMS screening.
For analyzing Mogroside IIIE & Compound 1, the LCMS method included the use of Fluoro-phenyl 2.1×100 mm column, gradient 15 to 30% B for 6 minutes, at flow rate of 0.55 ml/min. For analyzing yeast production of mogroside I during enzyme screening, the LCMS method used a Phenomenex Kinetex Polar C18, 4.6×100 mm, 2.6 μm column, and a gradient of 25% to 55% B over 3 minutes, and 100% B at 3.5 minutes with a flow rate of 1.5 ml/min. Detection by ESI source negative mode single ion monitoring of 683.4 for mogroside I and 799.4 for mogroside II.
Various glycosyltransferase proteins were expressed in S. cerevisiae grown in the presence of 10 μM mogrol for 2-4 days at 30° C., 140-250 rpm in either shake flask or 96 well plates. Glycosyltransferases leading to production of Mogroside IA (glycosylation of C24-OH position) and/or Mogroside IE (glycosylation of C3-OH position) are provided in Table 6. DNA and protein sequences for the enzymes are provided in SEQ IDs 1050-1071 (see Table 1).
B1 was tested, and the “Mogroside IA” value was 659331 and the “Mogroside IE” value was 17857.
With B2 the “Mogroside IA” value was 200270 and the “Mogroside IE” value was 4690.
With B3 the “Mogroside IA” value was 1605 and the “Mogroside IE” value was 22917.

These molecules were tested on cucurbitadienol (assay: 11-OH cucurbitadienol production from cucurbitadienol by CYP450s expressed in S. cerevisiae, LCMS). Conditions: S. cerevisiae strain producing cucurbitadienol and expressing SgCPR; LCMS peak area of product vs. internal reference; hits over vector only control.
Type: cell-based
Source text: as §1
For analyzing 11-OH cucurbitadienol, the LCMS method included the use of C8 2.1×100 mm column, gradient 60 to 90% B for 6 minutes at flow rate of 0.55 ml/min. For the enzyme screening, the LCMS method used was a Waters Acquity UPLC Protein BEH C4, 2.1×100 mm, 1.7 μm column and a gradient of 40% to 80% over 5 minutes, 95% B from 5.1 to 5.6 minutes with a flow rate of 0.55 ml/min, and ESI source positive mode single ion monitoring of 425.4.
Additional CYP450s were expressed in S. cerevisiae strain producing cucurbitadienol and expressing SgCPR. DNA and protein sequences for the CYP450 enzymes are shown in SEQ IDs 871-890 and 1024-1049 (see Table 1).
In the case of B4, the “Peak Area 11-OH CCB” value is reported as 0.9893.
In the case of B5, the “Peak Area 11-OH CCB” value is reported as 0.9703.
With B6 the “Peak Area 11-OH CCB” value was 0.649.
In the case of B7, the “Peak Area 11-OH CCB” value is reported as 0.9207.
